T1: Human CD3 (human)
T1 chain: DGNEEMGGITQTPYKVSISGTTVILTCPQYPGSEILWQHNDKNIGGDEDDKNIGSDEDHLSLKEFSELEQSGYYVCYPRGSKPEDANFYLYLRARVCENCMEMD

B1: CD38VH1/CD28sup x CD3mid_ENLQ DKTHT IgG4 FALA (other)
light 1: DIVMTQTPLSLSVTPGQPASISCKSSQSLVHENLQTYLSWYLQKPGQSPQSLIYKVSNRFSGVPDRFSGSGSGTDFTLKISRVEAEDVGVYYCGQGTQYPFTFGSGTKVEIKDKTHTDIQMTQSPSSLSASVGDRVTITCQASQNIYVWLNWYQQKPGKAPKLLIYKASNLHTGVPSRFSGSGSGTDFTLTISSLQPEDIATYYCQQGQTYPYTFGQGTKLEIKDKTHTRTVAAPSVFIFPPSDEQLKSGTASVVCLLNNFYPREAKVQWKVDNALQSGNSQESVTEQDSKDSTYSLSSTLTLSKADYEKHKVYACEVTHQGLSSPVTKSFNRGEC
heavy 1: QVQLVQSGAEVVKPGASVKVSCKASGYTFTSYYIHWVRQAPGQGLEWIGSIYPGNVNTNYAQKFQGRATLTVDTSISTAYMELSRLRSDDTAVYYCTRSHYGLDWNFDVWGKGTTVTVSSDKTHTQVQLVESGGGVVQPGRSLRLSCAASGFTFTKAWMHWVRQAPGKQLEWVAQIKDKSNSYATYYADSVKGRFTISRDDSKNTLYLQMNSLRAEDTAVYYCRGVYYALSPFDYWGQGTLVTVSSDKTHTASTKGPSVFPLAPCSRSTSESTAALGCLVKDYFPEPVTVSWNSGALTSGVHTFPAVLQSSGLYSLSSVVTVPSSSLGTKTYTCNVDHKPSNTKVDKRVESKYGPPCPPCPAPEAAGGPSVFLFPPKPKDTLMISRTPEVTCVVVDVSQEDPEVQFNWYVDGVEVHNAKTKPREEQFNSTYRVVSVLTVLHQDWLNGKEYKCKVSNKGLPSSIEKTISKAKGQPREPQVCTLPPSQEEMTKNQVSLSCAVKGFYPSDIAVEWESNGQPENNYKTTPPVLDSDGSFFLVSKLTVDKSRWQEGNVFSCSVMHEALHNHYTQKSLSLSLG
heavy 2: QVQLVQSGAEVVKPGASVKVSCKASGYTFTSYAMHWVKEAPGQRLEWIGYIYPGQGGTNYNQKFQGRATLTADTSASTAYMELSSLRSEDTAVYFCARTGGLRRAYFTYWGQGTLVTVSSASTKGPSVFPLAPCSRSTSESTAALGCLVKDYFPEPVTVSWNSGALTSGVHTFPAVLQSSGLYSLSSVVTVPSSSLGTKTYTCNVDHKPSNTKVDKRVESKYGPPCPPCPAPEAAGGPSVFLFPPKPKDTLMISRTPEVTCVVVDVSQEDPEVQFNWYVDGVEVHNAKTKPREEQFNSTYRVVSVLTVLHQDWLNGKEYKCKVSNKGLPSSIEKTISKAKGQPREPQVYTLPPCQEEMTKNQVSLWCLVKGFYPSDIAVEWESNGQPENNYKTTPPVLDSDGSFFLYSKLTVDKSRWQEGNVFSCSVMHEALHNHYTQKSLSLSLG
light 2: DIVLTQSPATLSLSPGERATISCRASQSVSSYGQGFMHWYQQKPGQPPRLLIYGASSRATGIPARFSGSGSGTDFTLTISPLEPEDFAVYYCQQNKEDPWTFGGGTKLEIKRTVAAPSVFIFPPSDEQLKSGTASVVCLLNNFYPREAKVQWKVDNALQSGNSQESVTEQDSKDSTYSLSSTLTLSKADYEKHKVYACEVTHQGLSSPVTKSFNRGEC
notes: Trispecific antibody; also called BP # 1
B2: CD38hhy992/CD28sup x CD3mid_ENLQ DKTHT IgG4 FALA (other)
light 1: B1 light 1
heavy 1: B1 heavy 1
heavy 2: QVQLVQSGAEVKKPGASVKVSCKVSGYTLTEFSIHWVRQAPGQGLEWMGGFDPEDGETIYAQKFQGRVIMTEDTSTDTAYMEMNSLRSEDTAIYYCTTGRFFDWFWGQGTLVTVSSASTKGPSVFPLAPCSRSTSESTAALGCLVKDYFPEPVTVSWNSGALTSGVHTFPAVLQSSGLYSLSSVVTVPSSSLGTKTYTCNVDHKPSNTKVDKRVESKYGPPCPPCPAPEAAGGPSVFLFPPKPKDTLMISRTPEVTCVVVDVSQEDPEVQFNWYVDGVEVHNAKTKPREEQFNSTYRVVSVLTVLHQDWLNGKEYKCKVSNKGLPSSIEKTISKAKGQPREPQVYTLPPCQEEMTKNQVSLWCLVKGFYPSDIAVEWESNGQPENNYKTTPPVLDSDGSFFLYSKLTVDKSRWQEGNVFSCSVMHEALHNHYTQKSLSLSLG
light 2: EIILTQSPAILSLSPGERATLSCRASQSVISRFLSWYQVKPGLAPRLLIYGASTRATGIPVRFSGSGSGTDFSLTISSLQPEDCAVYYCQQDSNLPITFGQGTRLEIKRTVAAPSVFIFPPSDEQLKSGTASVVCLLNNFYPREAKVQWKVDNALQSGNSQESVTEQDSKDSTYSLSSTLTLSKADYEKHKVYACEVTHQGLSSPVTKSFNRGEC
notes: Trispecific antibody; also called BP # 5′
B3: CD38hyb6284/CD28sup x CD3mid_ENLQ DKTHT IgG4 FALA (other)
light 1: B1 light 1
heavy 1: B1 heavy 1
heavy 2: QVQLLQSGAELVRPGVSVKISCTGSGYSFTNYAVHWVKQSHVKSLEWIGVISPYYGDTTYNQKFTGKATMTVDKSSSTAYMELARLTSEDSAIYFCARRFEGFYYSMDYWGQGTSVTVSSASTKGPSVFPLAPCSRSTSESTAALGCLVKDYFPEPVTVSWNSGALTSGVHTFPAVLQSSGLYSLSSVVTVPSSSLGTKTYTCNVDHKPSNTKVDKRVESKYGPPCPPCPAPEAAGGPSVFLFPPKPKDTLMISRTPEVTCVVVDVSQEDPEVQFNWYVDGVEVHNAKTKPREEQFNSTYRVVSVLTVLHQDWLNGKEYKCKVSNKGLPSSIEKTISKAKGQPREPQVYTLPPCQEEMTKNQVSLWCLVKGFYPSDIAVEWESNGQPENNYKTTPPVLDSDGSFFLYSKLTVDKSRWQEGNVFSCSVMHEALHNHYTQKSLSLSLG
light 2: DVVMIQTPLSLPVSLGDQASISCRPSQSLVHSNGNTYLNWYLQRPGQSPKLLIYKVSKRFSGVPDRFSGSGSGTDFTLKISRVEAEDLGVYLCSQSTHVPLTFGSGTQLEIKRTVAAPSVFIFPPSDEQLKSGTASVVCLLNNFYPREAKVQWKVDNALQSGNSQESVTEQDSKDSTYSLSSTLTLSKADYEKHKVYACEVTHQGLSSPVTKSFNRGEC
notes: Trispecific antibody; also called BP # 7
B4: CD38hhy1370/CD28sup x CD3mid_ENLQ DKTHT IgG4 FALA (other)
light 1: B1 light 1
heavy 1: B1 heavy 1
heavy 2: QVQLVESGGGVVQPGRSLRLSCAASGFTFSSYGMHWVRQAPGKGLEWVAVIWYDGSNKYYADSVKGRFTISGDNSKNTLYLQMNSLRAEDTAVYYCARMFRGAFDYWGQGTLVTVSSASTKGPSVFPLAPCSRSTSESTAALGCLVKDYFPEPVTVSWNSGALTSGVHTFPAVLQSSGLYSLSSVVTVPSSSLGTKTYTCNVDHKPSNTKVDKRVESKYGPPCPPCPAPEAAGGPSVFLFPPKPKDTLMISRTPEVTCVVVDVSQEDPEVQFNWYVDGVEVHNAKTKPREEQFNSTYRVVSVLTVLHQDWLNGKEYKCKVSNKGLPSSIEKTISKAKGQPREPQVYTLPPCQEEMTKNQVSLWCLVKGFYPSDIAVEWESNGQPENNYKTTPPVLDSDGSFFLYSKLTVDKSRWQEGNVFSCSVMHEALHNHYTQKSLSLSLG
light 2: AIQMTQSPSSLSASVGDRVTITCRASQGIRNDLGWYQQKPGKAPKLLIYAASSLQSGVPSRFSGSGSGTDFTLTISGLQPEDSATYYCLQDYIYYPTFGQGTKVEIKRTVAAPSVFIFPPSDEQLKSGTASVVCLLNNFYPREAKVQWKVDNALQSGNSQESVTEQDSKDSTYSLSSTLTLSKADYEKHKVYACEVTHQGLSSPVTKSFNRGEC
notes: Trispecific antibody; also called BP # 9
B5: CD38hhy1195/CD28sup x CD3mid_ENLQ DKTHT IgG4 FALA (other)
light 1: B1 light 1
heavy 1: B1 heavy 1
heavy 2: QVQLVESGGGVVQPGRSLRLSCAASGFTFSSYGMYWVRQAPGKGLEWVAVIWYDGSNKYYADSVKGRFTISRDNSKNTLYLQMNSLRAEDTAVYHCARDPGLRYFDGGMDVWGQGTTVTVSSASTKGPSVFPLAPCSRSTSESTAALGCLVKDYFPEPVTVSWNSGALTSGVHTFPAVLQSSGLYSLSSVVTVPSSSLGTKTYTCNVDHKPSNTKVDKRVESKYGPPCPPCPAPEAAGGPSVFLFPPKPKDTLMISRTPEVTCVVVDVSQEDPEVQFNWYVDGVEVHNAKTKPREEQFNSTYRVVSVLTVLHQDWLNGKEYKCKVSNKGLPSSIEKTISKAKGQPREPQVYTLPPCQEEMTKNQVSLWCLVKGFYPSDIAVEWESNGQPENNYKTTPPVLDSDGSFFLYSKLTVDKSRWQEGNVFSCSVMHEALHNHYTQKSLSLSLG
light 2: DIQLTQSPSFLSASVGDRVTITCRASQGISSYLAWYQQKPGKAPKLLIFAASTLHSGVPSRFSGSGSGTEFTLTISSLQPEDFATYYCQQLNSFPYTFGQGTKLEIKRTVAAPSVFIFPPSDEQLKSGTASVVCLLNNFYPREAKVQWKVDNALQSGNSQESVTEQDSKDSTYSLSSTLTLSKADYEKHKVYACEVTHQGLSSPVTKSFNRGEC
notes: Trispecific antibody; also called BP # 8

What was measured:
[1] = target: T2, human CD38 on tumor cell lines NCI-H929 (CD38+/CD28+) and OCI-LY19 (CD38+/CD28-) (human, UniProt P28907 1-300); assay: cell-based or functional assay
[2] = target: T2, human CD38 on tumor cell lines NCI-H929 …; assay: cell-based or functional assay; remark: listed apart in the source
[3] = target: T3, Human CD28 (human, UniProt P10747 19-152, limits assumed); assay: ELISA, antigen-coated plate
T3 construct: also called hCD28
Protocol: (§1) Binding affinities to each target antigen by the CD38/CD28×CD3 T cell engagers were measured by ELISA. Briefly, each antigen was used to coat the 96-well Immuno Plate (Thermo Fisher Scientific) overnight at 4° C. using 200 ng/well in PBS (pH7.4) of each antigen. The coated plate was blocked using 5% skim milk+2% BSA in PBS for one hour at RT, followed by washing with PBS+0.25% Tween 20 three times (Aqua Max 400, Molecular Devices). Serial dilution of antibodies (trispecific and control Abs) were prepared and added onto the ELISA plates (100 μl/well in duplicate), incubated at room temperature (RT) for one hour, followed by washing 5 times with PBS+0.25% Tween 20. […] The reaction was terminated by adding 50 μl 1M H₂SO₄, and OD450 was measured using SpectraMax M5 (Molecular Devices) and analyzed using SoftMax Pro6.3 software (Molecular Devices). The final data was transferred to GraphPad Prism software (GraphPad Software, CA, USA), and plotted. EC50 was calculated using the same software.
(§2) The binding affinities of selected CD38/CD28sup×CD3mid_ENLQ DKTHT IgG4 FALA trispecific antibodies with alternative anti-CD38 binding domains for human CD3, human CD28, human CD38 and cynomolgus monkey CD38 were then determined by ELISA as described above.

[4] = target: T4, human CD38 (human, UniProt P28907 43-300, limits assumed); assay: ELISA, antigen-coated plate
T4 construct: also called hCD38; huCD38
Protocol: as §1, §2

[5] = target: T5, cynomolgus monkey CD38 (cynomolgus monkey, UniProt Q5VAN0 44-301, limits assumed); assay: ELISA, antigen-coated plate
T5 construct: also called Cyno CD38; cynoCD38
Protocol: as §1, §2

[6] = target: T1, Human CD3; assay: ELISA, antigen-coated plate
Protocol: as §1, §2

[7] = target: T6, Human CD38-His (human, UniProt P28907 43-300, limits assumed); assay: SPR (BIACORE 3000), capture format, 1:1 Langmuir model
T6 construct: Bought antigen; also called human CD38 (SPR antigen); not shown: His tag

Binder | EC50 of in vitro killing of NCI-H929 (CD38+/CD28+) cells, With Dara [1] | EC50 of in vitro killing of NCI-H929 (CD38+/CD28+) cells, With human IgG1 [1] | EC50 of in vitro killing of OCI-LY19 (CD38+/CD28-) cells, With Dara [2] | EC50 of in vitro killing of OCI-LY19 (CD38+/CD28-) cells, With human IgG1 [2] | EC50 [3] | EC50 [4] | EC50 [5] | EC50 [6] | Kd [7] | koff [7] | kon [7]
B1 | 0.0298 nM | 0.00106 nM | 0.136 nM | 0.00566 nM | 0.725 nM | 7.24 nM | 2.13 nM | 6.74 nM | 2.85 nM | 0.00158 s⁻¹ | 555000 M⁻¹ s⁻¹
B2 | 0.126 nM | 0.0134 nM | 0.133 nM | 0.0573 nM | 0.809 nM | 0.229 nM | 0.912 nM | 33.6 nM | 0.129 nM | 0.000175 s⁻¹ | 1.35e+06 M⁻¹ s⁻¹
B3 | 0.0336 nM | 0.00437 nM | 0.081 nM | 0.0421 nM | 0.711 nM | 0.253 nM | 0.29 nM | 8.22 nM | 0.652 nM | 0.000512 s⁻¹ | 785000 M⁻¹ s⁻¹
B4 | 0.255 nM | 0.0096 nM | 0.21 nM | 0.0585 nM | 1.26 nM | 0.587 nM | 0.553 nM | 25 nM | 0.876 nM | 0.000329 s⁻¹ | 376000 M⁻¹ s⁻¹
B5 | 0.0893 nM | 0.017 nM | 0.715 nM | 0.296 nM | 0.697 nM | 103 nM | 37.7 nM | 7.63 nM | 14.2 nM | 0.018 s⁻¹ | 1.27e+06 M⁻¹ s⁻¹
